According to the supplement of paper PMC7125110:
± gives the standard error. For some assays here: This sample holds only a part of the variants without activity.

B1: glmS ribozyme (parent)
chain: AUAAAAGCGCCAGAACUACAGAAAUGUAGUUGACGAGGAGGAGGUUUAUCGAAUUUUCGGCGGAUGCCUCCAAA

Columns and labels:
Conditions in all cases: with glucosamine-6-phosphate
glucosamine-6-phosphate [1] = variants of: B1; test: kcat; higher = faster cleavage; RNA array
In short: (§1)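 Over ~14 h at 37 °C, tiles were imaged as glucosamine-6-phosphate (40 μM to 10 mM) in HEPES/KCl/Mg(OAc)2 buffer flowed across sequenced MiSeq chips. The chips carried barcoded ribozyme variants transcribed in situ by E. coli RNA polymerase and tracked with a hybridised Cy3 probe. After normalisation to baseline and to non-cleaving reference variants, one- or two-exponential decay fits of per-tile medians gave kobs. kcat and KM followed from weighted Michaelis–Menten fits across concentrations.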

glucosamine-6-phosphate [2] = variants of: B1; test: KM; higher = weaker cofactor use; RNA array
In short: as §1

glucosamine-6-phosphate [3] = variants of: B1; test: self-cleavage kobs at 160 uM GlcN6P; higher = faster cleavage; RNA array
In short: as §1

glucosamine-6-phosphate [4] = variants of: B1; test: self-cleavage kobs at 640 uM GlcN6P; higher = faster cleavage; RNA array
In short: as §1

glucosamine-6-phosphate [5] = variants of: B1; test: self-cleavage kobs at 2500 uM GlcN6P; higher = faster cleavage; RNA array
In short: as §1

glucosamine-6-phosphate [6] = variants of: B1; test: self-cleavage kobs at 10000 uM GlcN6P; higher = faster cleavage; RNA array
In short: as §1

glucosamine-6-phosphate [7] = variants of: B1; test: self-cleavage kobs at 40 uM GlcN6P; higher = faster cleavage; RNA array
In short: as §1

Variant | kcat (glucosamine-6-phosphate [1]) | KM (glucosamine-6-phosphate [2]) | self-cleavage kobs at 160 uM GlcN6P (glucosamine-6-phosphate [3]) | self-cleavage kobs at 640 uM GlcN6P (glucosamine-6-phosphate [4]) | self-cleavage kobs at 2500 uM GlcN6P (glucosamine-6-phosphate [5]) | self-cleavage kobs at 10000 uM GlcN6P (glucosamine-6-phosphate [6]) | self-cleavage kobs at 40 uM GlcN6P (glucosamine-6-phosphate [7])
A6G A15G | 0.000647 ± 5.3e-05 s⁻¹ | 2540 ± 370 µM | 3.49e-05 ± 1.1e-05 s⁻¹ | 0.000131 ± 1.7e-05 s⁻¹ | 0.000324 ± 4.3e-05 s⁻¹ | 0.000514 ± 5.4e-05 s⁻¹ | 
A15U U57G C58U C70A | 6.42e-05 ± 1.8e-05 s⁻¹ |  | 4.86e-05 ± 1.7e-05 s⁻¹ | 9.48e-05 ± 3.5e-05 s⁻¹ | 7.42e-05 ± 2e-05 s⁻¹ |  | 
C67U C71U | 0.00245 ± 0.0012 s⁻¹ |  | 0.000128 ± 1.6e-05 s⁻¹ | 0.000403 ± 3.1e-05 s⁻¹ | 0.00121 ± 0.00026 s⁻¹ | 0.00213 ± 0.00029 s⁻¹ | 6.24e-05 ± 6.8e-06 s⁻¹
C67A C70A | 5e-05 ± 6.5e-06 s⁻¹ |  |  | 4.23e-05 ± 1.8e-05 s⁻¹ | 6.33e-05 ± 1e-05 s⁻¹ | 4.28e-05 ± 7.3e-06 s⁻¹ | 
A39U C50G C58U | 1.28e-05 ± 4e-06 s⁻¹ |  |  |  |  |  | 
U54G G59A | 9.1e-05 ± 6.5e-06 s⁻¹ | 858 ± 300 µM |  |  | 6.93e-05 ± 2.3e-05 s⁻¹ | 8.23e-05 ± 3e-05 s⁻¹ | 
A15G C16A C70U | 0.000398 ± 6.7e-05 s⁻¹ | 804 ± 260 µM | 6.78e-05 ± 2.4e-05 s⁻¹ | 0.000168 ± 2.9e-05 s⁻¹ | 0.000315 ± 6.5e-05 s⁻¹ |  | 
A12C G38U | < 1e-05 s⁻¹ | 1280 ± 390 µM |  |  |  |  | 
G37C U54A U69G | 3.07e-05 ± 5e-06 s⁻¹ |  |  |  |  |  | 
A36C C68G | 7.04e-05 ± 2.3e-05 s⁻¹ |  |  | 0.000107 ± 1.7e-05 s⁻¹ | 4.55e-05 ± 1.3e-05 s⁻¹ | 8.61e-05 ± 3.4e-05 s⁻¹ | 3.7e-05 ± 1.3e-05 s⁻¹
G29A C67U C71G | 4.81e-05 ± 2.2e-05 s⁻¹ |  |  | 9.19e-05 ± 4.3e-05 s⁻¹ |  |  | 
G60C C70U | < 1e-05 s⁻¹ |  | < 1e-05 s⁻¹ |  |  |  | 
A52G C71G | 0.00014 ± 1.4e-05 s⁻¹ | 431 ± 170 µM | 4.09e-05 ± 1.4e-05 s⁻¹ | 7.87e-05 ± 1.1e-05 s⁻¹ | 0.000157 ± 2.2e-05 s⁻¹ | 0.000127 ± 1.2e-05 s⁻¹ | 
G29C C70A | 4.11e-05 ± 9.8e-06 s⁻¹ |  | 2.35e-05 ± 1.1e-05 s⁻¹ | 5.19e-05 ± 9.6e-06 s⁻¹ | 4.33e-05 ± 9.8e-06 s⁻¹ |  | 
C10U A14G | 0.000181 ± 2.4e-05 s⁻¹ | 2130 ± 650 µM |  | 5.02e-05 ± 7.8e-06 s⁻¹ | 8.95e-05 ± 8.6e-06 s⁻¹ | 0.000159 ± 1.6e-05 s⁻¹ | 
A20G G37C C58A | 1.09e-05 ± 2.8e-06 s⁻¹ |  |  |  |  |  | 
A6C C71G | 1.2e-05 ± 1.5e-06 s⁻¹ |  |  |  |  |  | < 1e-05 s⁻¹
C58A C67A | 0.000182 ± 3.1e-05 s⁻¹ | 2300 ± 1000 µM |  | 3.37e-05 ± 1.2e-05 s⁻¹ | 0.000146 ± 4e-05 s⁻¹ | 0.000144 ± 2e-05 s⁻¹ | 
U56G G59C | < 1e-05 s⁻¹ |  | < 1e-05 s⁻¹ | < 1e-05 s⁻¹ |  |  | < 1e-05 s⁻¹
C16A C71G | 6.32e-05 ± 9.8e-06 s⁻¹ |  | 3.88e-05 ± 1.5e-05 s⁻¹ | 7.21e-05 ± 1.7e-05 s⁻¹ | 9.36e-05 ± 1.5e-05 s⁻¹ | 5.48e-05 ± 6.9e-06 s⁻¹ | 
